Test results as given in paper PMC11154709, “4S-fluorination of ProB29 in insulin lispro slows fibril formation” (The Journal of Biological Chemistry, 2024).
“Also recorded” adds a separate entry of the source.

Key:
Type in all cases: physicochemical
[1] = ANS fluorescence (conformational disorder); details: 1 μM lispro variant, 5 μM ANS, 100 mM phosphate, pH 8.0, ambient temperature, 350 nm excitation; mean ± SD, three separate HPLC fractions
Method: Figure 4 Fibrillation of lispro variants.A, lispro variants (60 μM in 100 mM phosphate buffer, pH 8.0) were incubated at 37 °C with vigorous shaking; fibril formation was monitored by ThT fluorescence. Fibrillation runs were performed on two separate HPLC fractions, each in triplicate or quadruplicate, on two separate days. B–E, TEM images of lispro (B), KP-4R-F (C), KP-4S-F (D), and KP-44-diF (E) aggregates. F, ANS emission spectra of lispro variants (1 μM lispro variant labeled with 5 μM ANS in 100 mM phosphate buffer, pH 8.0). The data presented here indicate the mean ± SD for each variant from measurements of three separate HPLC fractions. 44-diF, 4,4-difluoroproline; 4R-F, 4R-fluoroproline; 4S-F, 4S-fluoroproline; ThT, thioflavin T. […]
Lispro variants (1 μM) were mixed with 5 μM ANS in 100 mM phosphate buffer, pH 8.0. Fluorescence emission spectra were measured at ambient temperature (350 nm excitation). Measurements for each lispro were performed in triplicate from three separate HPLC fractions. […]
(§1) Transmission electron microscopy: […]
Lispro variants (1 µM) were mixed with 5 µM ANS in 100 mM phosphate buffer, pH 8.0.
Fluorescence emission spectra were measured in 1 cm quartz cuvettes at ambient temperature using a PTI QuantaMaster fluorescence spectrofluorometer. A 2 nm s -1 scan rate and 350 nm excitation wavelength were used. Measurements for each variant were performed in triplicate from three separate HPLC fractions.

[2] = test system: zinc- and resorcinol-bound hexamer; assay: Hexamer dissociation kinetics by CD after dilution; details: 250 μM ZnCl2, 25 mM resorcinol; for Hexamer dissociation t1/2: 600 μM insulin or lispro, 25 mM tris pH 8.0, 150-fold dilution, 25 °C, ellipticity at 222 nm over 120 s, at least two separate HPLC fractions, different days
Method: We measured the half-life (t1/2) for dissociation of the hexamer form of each lispro variant by monitoring the change in negative ellipticity at 222 nm over time after dilution (Figs. 3A, S4, and S5). Insulin and lispro variants were formulated to mimic the pharmaceutical formulation (600 μM insulin, 25 mM resorcinol, 250 μM ZnCl2); resorcinol was used as the phenolic ligand to slow dissociation ([30]). […] Monitoring dissociation processes faster than that of lispro is limited by the mixing time of this experiment, though comparisons to human insulin can still be made.
Samples were dialyzed overnight against 28.6 mM tris buffer, pH 8.0, then formulated as 600 μM insulin or lispro, 250 μM ZnCl2, 25 mM resorcinol, 25 mM tris, pH 8.0. A 20 μl aliquot of the formulation solution was injected into a stirred buffer solution containing 2.98 ml of 25 mM tris, pH 8.0 (150-fold dilution) at 25 °C. Ellipticity was monitored over 120 s at 222 nm. A typical run led to a rapid drop in CD signal as mixing occurred (∼5 s), then a gradual rise to an ellipticity representative of an insulin monomer. Data preceding the timepoint with the greatest negative ellipticity represented the mixing time and were omitted from further analysis. […] Dissociation data were fit to a mono-exponential function using Scipy (Python). The data presented here are from at least two separate HPLC fractions, measured on different days. […]
Circular dichroism spectroscopy: […]
Kinetic measurements: Insulin or lispro samples in 100 mM sodium phosphate buffer pH 8.0 were dialyzed overnight against 28.6 mM tris buffer, pH 8.0 (Slide -A-Lyzer dialysis cassettes, 3.5 kDa MWCO, ThermoFisher). Samples were formulated as follows: 600 µM lispro, 250 µM ZnCl 2, 25 mM resorcinol, 25 mM tris buffer, pH 8. A 20 µL volume of the insulin formulation was injected into a stirred buffer solution containing 2.98 mL of 25 mM tris, pH 8.0 in a 10 mm quartz cuvette (150-fold dilution). Ellipticity was m onitored at 222 nm over 120 s (1 s kinetic interval, 0.5 s time constant) at 25°C. A typical run led to a rapid drop in CD signal as mixing occurred (~5 s), then a gradual rise to an equilibrium ellipticity representative of an insulin monomer. Data preceding […]
omitted from further analysis. Runs were discarded if the maximum change in mean residue […]
remaining data were fit to a mono -exponential function using Scipy (Python); data presented here are from at least two separate HPLC fractions, measured on two different days.
An equilibrium spectrum for each protein was obtained after dilution; all spectra were indicative of an insulin monomer (Figure S3). The CD spectrum of lispro under pre -dilution formulation conditions was obtained using a 0.1 mm quartz cuvette. […]

[3] = Fibrillation (thioflavin T), shaking at 37 °C; details: 60 μM in 100 mM sodium phosphate, pH 8.0, 37 °C; for Fibrillation lag time: shaking 960 rpm, 1 μM ThT (444/485 nm), lag time = x-intercept, two HPLC fractions, each in triplicate or quadruplicate, two days; for fibrillation: vigorous shaking, ThT
Method: Each insulin lispro variant was subjected to continuous, vigorous shaking at 37 °C to assess its stability against physical denaturation; fibrillation was monitored with the dye thioflavin T, (Fig. 4A).
Figure 4 Fibrillation of lispro variants.A, lispro variants (60 μM in 100 mM phosphate buffer, pH 8.0) were incubated at 37 °C with vigorous shaking; fibril formation was monitored by ThT fluorescence. Fibrillation runs were performed on two separate HPLC fractions, each in triplicate or quadruplicate, on two separate days. B–E, TEM images of lispro (B), KP-4R-F (C), KP-4S-F (D), and KP-44-diF (E) aggregates. F, ANS emission spectra of lispro variants (1 μM lispro variant labeled with 5 μM ANS in 100 mM phosphate buffer, pH 8.0). The data presented here indicate the mean ± SD for each variant from measurements of three separate HPLC fractions. 44-diF, 4,4-difluoroproline; 4R-F, 4R-fluoroproline; 4S-F, 4S-fluoroproline; ThT, thioflavin T.
Lispro samples (60 μM in 100 mM sodium phosphate buffer, pH 8.0) were centrifuged (22,000g, 1 h, 4 °C); 1 μM thioflavin T was then added. Each lispro variant was shaken continuously in a 96-well, black, clear bottom plate at 37 °C, and fluorescence (444 nm excitation, 485 nm emission) was monitored over time. Fibrillation runs were performed on two separate HPLC fractions, each in triplicate or quadruplicate, on two separate days. The growth phase of each replicate was fit to a linear function; lag times were reported as the x-intercept. […]
Lispro samples (60 µM in 100 mM sodium phosphate, pH 8.0) were centrifuged at 22,000 g for 1 h at 4°C, before 1 µM thioflavin T (ThT) was added. Each lispro (200 µL) was added to a 96 -well, black, clear bottom plate (Greiner Bio -One) and sealed. Samples were shaken continuously at 960 rpm on a Varioskan multimode plate reader at 37°C, and fluorescence readings were recorded every 15 min (444 nm excitation, 485 nm em ission). Fibrillation runs were performed on at least two separate HPLC fractions, each in triplicate or quadruplicate, and on two different days. The growth phase of each fibrillation replicate was fit to a linear function; f ibrillation lag times were reported as the x-intercept of this fit. Fibril samples were stored at 4°C until analysis by transmission electron microscopy (TEM).
as §1

Substance	ANS emission maximum [1]	Hexamer dissociation t1/2 [2]	Fibrillation lag time [3]	fibrillation [3]	hexamer dissociation ([2]; 600 μM protein, 150-fold dilution, pH 8.0, 25 °C, CD 222 nm)
KP-44-diF: insulin lispro with ProB29 replaced by 4,4-difluoroproline	462 ± 5 nm	9.9 ± 2.9 s	9.0 ± 1.3 h	did not significantly change the fibrillation lag time	
insulin lispro: fast-acting insulin with inversion of the residues ProB28 and LysB29; Humalog, Eli Lilly [reference compound]	466 ± 2 nm		10.9 ± 2.2 h		dissociated significantly more rapidly than human insulin
KP-4S-F: insulin lispro with ProB29 replaced by 4S-fluoroproline	463 ± 6 nm	11.2 ± 3.3 s	17.9 ± 0.8 h	stabilized against fibril formation; also recorded: extended lag time to fibril formation	
KP-4R-F: insulin lispro with ProB29 replaced by 4R-fluoroproline	464 ± 4 nm	10.2 ± 1.6 s	10.3 ± 2.4 h	did not significantly change the fibrillation lag time	
